# ± gives the half width of the 95% confidence interval.
# Key:
# [1] = folding stability dG unfold from trypsin proteolysis; higher = more stable
# Outline: (§1)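 Unfolding free energy was derived, per protease or combined, by relating Bayesian-fitted K50 values from sequencing counts to a sequence-predicted unfolded-state K50 and a shared folded-state K50. The underlying digests exposed cysteine-free mini-proteins under 80 residues, in a PA-tagged cDNA display construct, to trypsin and chymotrypsin at 11 threefold-diluted concentrations and to a no-protease condition. A filter kept only designs with AlphaFold2 dimer inter-PAE above 15.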
# [2] = folding stability dG unfold from chymotrypsin proteolysis; higher = more stable
# Outline: as §1
# [3] = folding stability dG unfold (combined trypsin and chymotrypsin); higher = more stable
# Outline: as §1
Sequence,folding stability dG unfold [1],folding stability dG unfold [2],folding stability dG unfold [3]
SAGKIEIEVNEDGYKVRIKVEIEGKTYEFEIKVEGLSVEEIVKKALEELKKLFPNKKIKVEVEILPKKESAG [r5_180_TrROS_Hall],4.14 ± 0.21 kcal/mol,4.81 ± 0.3 kcal/mol,4.9 ± 0.54 kcal/mol
SAGKIEILDEKPYKDSITVVAKLPGTDEIIVLTYNPKTKTVEIKIFPPKGVKTIPVKAKDIEKALKEIASAG [r5_769_TrMRF],0.728 ± 0.072 kcal/mol,2.18 ± 0.16 kcal/mol,1.7 ± 0.25 kcal/mol
SAGKIEKIVITKKKDGYVIKVYYKDNKKVKTYKAGKTLEEIKKKLEEEGFEIVKVEVKKVKPGEKVEISAGG [r19_386_TrROS_Hall],2.32 ± 0.18 kcal/mol,3.23 ± 0.21 kcal/mol,3.06 ± 0.43 kcal/mol
SAGKIKIEVEYLDPNGDWRRYEHTIPFKPNQSFEEAINELLPPGLREIKITEVDPEEGTIKIDIWIRPDSAG [r5_227_TrROS],2.12 ± 0.13 kcal/mol,2.5 ± 0.061 kcal/mol,2.41 ± 0.19 kcal/mol
SAGKIPPIKDIEPNPDNGMLMITIPFPDDGKLKVRIENKGQDQEYEFPPGMSFMIPPSNAPIKIEIEWDSAG [r14_96_TrROS],0.858 ± 0.019 kcal/mol,0.82 ± 0.069 kcal/mol,0.874 ± 0.098 kcal/mol
SAGKITLDGFTLDGEQTLTLTVEVPAPGGGTRTETFTATVTFDPETGTAHVPVTLPNGEELPFTFKVDASAG [r5_743_TrMRF],1.18 ± 0.024 kcal/mol,1.52 ± 0.09 kcal/mol,1.42 ± 0.075 kcal/mol
SAGKKIELTFRNPDGWMIRITIEKKPNGGFQITEITWEPYPNGRMSAKIYVPNGKTIEVNSWDDILDALSAG [r5_618_TrROS],1.09 ± 0.038 kcal/mol,2.57 ± 0.075 kcal/mol,2.12 ± 0.12 kcal/mol
SAGKKITAEELAKKIAEELGLPEDAKVEVEEVDGTIYIRVEGYVIKITVKDGEITIEIKPAPASPEALKSAG [r5_190_TrROS_Hall],1.53 ± 0.044 kcal/mol,2.91 ± 0.11 kcal/mol,2.43 ± 0.28 kcal/mol
SAGKKKKIKIKVKIIVNGKLKEIEIEVDENKTLEEILAEIKKKLPKNAIIIITNENGEKKIIILPKEELSAG [r5_77_TrROS_Hall],2.49 ± 0.24 kcal/mol,1.58 ± 0.1 kcal/mol,1.89 ± 0.45 kcal/mol
SAGKKKKIKKIEIEIEKNKDGKEIKVKVKVDGKEYEFTFPKNMSLEELLKKLKEELEKEGLKIEEVEIKSAG [r5_305_TrROS_Hall],2.5 ± 0.13 kcal/mol,2.8 ± 0.13 kcal/mol,2.73 ± 0.18 kcal/mol
SAGKKKKYKIKIKIEISEDGTIKITIEIFDKNGKLVKKIEITIKLPKVKLSEEELKEAAKKGDLEKALKSAG [r5_944_TrROS_Hall],2.23 ± 0.28 kcal/mol,3.6 ± 0.28 kcal/mol,2.95 ± 0.7 kcal/mol
SAGKKKVIIVKVKPEDLEKLLEAIKKLPKEKVKRIEIEVNGKLYLIEVTDKEIKIYDIETGEEKTIKLSAGG [r19_154_TrROS_Hall],2.1 ± 0.22 kcal/mol,2.6 ± 0.061 kcal/mol,2.39 ± 0.56 kcal/mol
SAGKKKVLLAVDPENNALVLVEYETVGDVTFVRSLVFHGNTTTETLGLVRVIEPGKTEKLLISVPIPPSAGG [r19_292_TrMRF],2.07 ± 0.047 kcal/mol,2.3 ± 0.05 kcal/mol,2.26 ± 0.13 kcal/mol
SAGKKLFIKVKIRVKKKVKLKDGKTVEKEKELTLLIEAESEEEALEAAKKLAEELGLEIEKVEIFKAPSAGG [r19_176_TrROS_Hall],2.41 ± 0.15 kcal/mol,3.75 ± 0.16 kcal/mol,3.09 ± 0.27 kcal/mol
SAGKKLIIRVEVYRREKNENGEIKKVTETLEVPPGATIEELVKALAPPGYTIRIEIIENGKIIETIEIKSAG [r5_278_TrROS_Hall],2.14 ± 0.16 kcal/mol,3.59 ± 0.086 kcal/mol,3.23 ± 0.31 kcal/mol
SAGKKQEVTIMIPIRGPAQAREQVEEFANDFPIKPTRVHPNPNKNHYWVMVTMKVPGAKIKIMIWIPPSAGG [r19_262_TrROS],2.94 ± 0.11 kcal/mol,4.19 ± 0.057 kcal/mol,3.67 ± 0.13 kcal/mol
SAGKKSTLTIDLPGSTVTLTYDPATGKVRITVNLGVAVAGIDPETGKPGIVTGSVTLEADIDVPPGAPISAG [r5_195_TrMRF],2.61 ± 0.16 kcal/mol,2.68 ± 0.057 kcal/mol,2.65 ± 0.15 kcal/mol
SAGKKTIIIKIPPNMTVEELKKALKNLKPNEKVTITVNGKKYTITVKDGKIKITFPENVKNMILIIEVKSAG [r5_373_TrROS_Hall],2.08 ± 0.13 kcal/mol,2.54 ± 0.057 kcal/mol,2.4 ± 0.36 kcal/mol

Sequence,folding stability dG unfold [1],folding stability dG unfold [2],folding stability dG unfold [3]
SAGKKTVTIVIRLKEPGERLSAEELAALLRELGLPPGAKVTVERRPDGYLVVTVEVDGKTVTIVIELEDSAG [r5_144_TrROS_Hall],2.04 ± 0.04 kcal/mol,2.516 ± 0.019 kcal/mol,2.34 ± 0.056 kcal/mol
SAGKKVKKITLTIKNKETGEYYKAEVIENENGEKYIKIINKKTGKIYIFKIKDGKIEPVKEISLKDIKPSAG [r5_619_TrROS_Hall],1.85 ± 0.067 kcal/mol,3.11 ± 0.053 kcal/mol,2.83 ± 0.2 kcal/mol
SAGKKVRIWIVFDGDPEQAKYLAEEIAKELRQKDGHKNVDIEVIPPGQDMHQMMEWAEENNVDIVIMVSAGG [r19_89_TrROS],2.68 ± 0.15 kcal/mol,3.85 ± 0.19 kcal/mol,3.59 ± 0.13 kcal/mol
SAGKKVTIKAIVRVKLANGEWFEAKVKEVTFDEETGEVTITVEVDGKTYTITVPLEDIELVDDAEEALKSAG [r5_15_TrROS_Hall],2.19 ± 0.034 kcal/mol,3.72 ± 0.064 kcal/mol,3.25 ± 0.063 kcal/mol
SAGKMLVVRIEVEVEVEVTVEKDGKKETFKEKKKLTLTLVFESEEEAEAAKKELEKLFPDLKIEVVPLPSAG [r5_453_TrROS_Hall],4.43 ± 0.47 kcal/mol,4.56 ± 0.16 kcal/mol,4.54 ± 0.2 kcal/mol
SAGKMYLIVIKVDGKEYVIVIPEEEMSEEEIRKLISEELGISEEEVEIVEIVPVEPGESVEEALKKALESAG [r5_900_TrROS_Hall],2.77 ± 0.14 kcal/mol,4.23 ± 0.074 kcal/mol,3.94 ± 0.15 kcal/mol
SAGKNEVLKVDIEYDPETGIIRLKTTYPNGLKEEKLIFKIPGTGKWYTAWNSEYEEGKEYQDFGILPESAGG [r19_394_TrMRF],1.98 ± 0.15 kcal/mol,2.35 ± 0.05 kcal/mol,2.02 ± 0.12 kcal/mol
SAGKPIDLGEVEVEISPVSYDPETGKLTYQARLVTKDGKPIYTASVTYDPKTGKFSISVTPIGYDPSAFSAG [r5_200_TrMRF],2.26 ± 0.057 kcal/mol,1.99 ± 0.12 kcal/mol,2.2 ± 0.14 kcal/mol
SAGKPKIIEEKTITVPPGATLTIEFPPEVKRIEIINLDTGKTETIEIKPGEKLTFTFPPGSTVRVRVLSAGG [r19_118_TrROS_Hall],2.38 ± 0.029 kcal/mol,4.06 ± 0.046 kcal/mol,3.65 ± 0.09 kcal/mol
SAGKPKVIFIEGMTKEQLRAAIDEAKKKLKPGDIIVVRSKEAADALKELLPDLTVYLVDEETKEVKKLPSAG [r5_391_TrROS_Hall],1.91 ± 0.14 kcal/mol,2.1 ± 0.067 kcal/mol,2.08 ± 0.14 kcal/mol
SAGKPLTPDEAKELAEELVDAFAEEFARRHGMPPDDMKVIEVEETPDGYIQVTFRMPNMPMKFEIPVKDSAG [r5_565_TrROS],0.435 ± 0.057 kcal/mol,0.277 ± 0.11 kcal/mol,0.366 ± 0.1 kcal/mol
SAGKPPPVKIEVNYRRTPDNSYRAEVQIRLPDGKPLFEVTYPFDNPDDPEARERFVRKARNLAKELANSAGG [r19_13_TrROS],1.9 ± 0.14 kcal/mol,1.8 ± 0.19 kcal/mol,2.14 ± 0.5 kcal/mol
SAGKSIKIPYIIRFPSPNGEPHLMRIKEVTINPKPGMVKIKFQMPGKKQTHTVPPNNIEILPDPEEILKSAG [r5_15_TrROS],0.116 ± 0.22 kcal/mol,-0.0282 ± 0.33 kcal/mol,-0.0216 ± 0.29 kcal/mol
SAGKTATFTFTLPLPENDLILRVTVRVEEVEDIGEKKVYRVNVEIDLIDKDGVPHRFSFSFLVPAEELFSAG [r14_916_TrMRF],3.39 ± 0.15 kcal/mol,5.14 ± 0.11 kcal/mol,4.83 ± 0.16 kcal/mol
SAGKTIVIKAKTAEEAINALLKELKKKGEKVKITVTVYDKNGKEVYRVTIEIDPKEKGKIKIKVEKVPSAGG [r19_85_TrROS_Hall],2.19 ± 0.22 kcal/mol,3.65 ± 0.2 kcal/mol,3.33 ± 0.44 kcal/mol
SAGKVEIKEVSVDPNTDEVKVTFKNPNVPPGTKIVVYPKDGKPIEFETEPNKEVTLTLPKDVEKIEFEGSAG [r14_671_TrMRF],-0.298 ± 0.13 kcal/mol,0.381 ± 0.14 kcal/mol,0.0919 ± 0.15 kcal/mol
SAGKVKATYDPKTGTLTITFNVKKNEKINVKANIKIPEYNATVEKVETNGAKKDNEPVTVKIKLKNLKKSAG [r5_737_TrMRF],1.06 ± 0.076 kcal/mol,2.75 ± 0.12 kcal/mol,1.94 ± 0.54 kcal/mol

# Reference: the supplement of paper PMC12764529
